Reference: patent publication US20210330742

Molecular target: CDK4 (UniProt P11802)
Sequence (P11802 2-303): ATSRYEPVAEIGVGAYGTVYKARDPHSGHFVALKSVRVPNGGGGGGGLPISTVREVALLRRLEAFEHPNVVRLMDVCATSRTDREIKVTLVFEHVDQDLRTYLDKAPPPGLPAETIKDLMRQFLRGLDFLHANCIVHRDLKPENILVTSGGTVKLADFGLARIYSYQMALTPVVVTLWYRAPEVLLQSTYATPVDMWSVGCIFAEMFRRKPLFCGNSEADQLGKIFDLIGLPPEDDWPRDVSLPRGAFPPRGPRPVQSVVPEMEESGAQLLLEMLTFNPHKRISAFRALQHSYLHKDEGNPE

JNK
phosphorylation of CDK4 at Thr-172 (immunoblot): JNK phosphorylated T172 of CDK4 2 hours after serum stimulation
